Reference: patent US20110256062A1 (MEDICAL RESEARCH COUNCIL, published 2011)
One block for each molecule: values may come before it.

How the values were obtained:
[1] = biological target: full-length GFP-LRRK2[G2019S] mutant (human) (UniProt Q5S007); assay: SILAC mass spectrometry of GFP-binder immunoprecipitates from HEK-293 lysates; range told of the group of isoforms
[2] = biological target: wild type full-length GFP-LRRK2 (human) (UniProt Q5S007); assay: as above
[3] = biological target: T1, full length human FLAG-LRRK2 (wild type) (human, UniProt Q5S007 1-2527, phosphoserine at 860, 910, 935, 955, 973 and 976 (mass spectrometry)); assay: glutathione-Sepharose affinity purification of GST tagged 14-3-3 isoforms from HEK-293 cells expressing FLAG-LRRK2, anti-FLAG immunoblot
T1 construct: mature; also called full length LRRK2
T1 sequence (Q5S007 whole entry, canonical isoform): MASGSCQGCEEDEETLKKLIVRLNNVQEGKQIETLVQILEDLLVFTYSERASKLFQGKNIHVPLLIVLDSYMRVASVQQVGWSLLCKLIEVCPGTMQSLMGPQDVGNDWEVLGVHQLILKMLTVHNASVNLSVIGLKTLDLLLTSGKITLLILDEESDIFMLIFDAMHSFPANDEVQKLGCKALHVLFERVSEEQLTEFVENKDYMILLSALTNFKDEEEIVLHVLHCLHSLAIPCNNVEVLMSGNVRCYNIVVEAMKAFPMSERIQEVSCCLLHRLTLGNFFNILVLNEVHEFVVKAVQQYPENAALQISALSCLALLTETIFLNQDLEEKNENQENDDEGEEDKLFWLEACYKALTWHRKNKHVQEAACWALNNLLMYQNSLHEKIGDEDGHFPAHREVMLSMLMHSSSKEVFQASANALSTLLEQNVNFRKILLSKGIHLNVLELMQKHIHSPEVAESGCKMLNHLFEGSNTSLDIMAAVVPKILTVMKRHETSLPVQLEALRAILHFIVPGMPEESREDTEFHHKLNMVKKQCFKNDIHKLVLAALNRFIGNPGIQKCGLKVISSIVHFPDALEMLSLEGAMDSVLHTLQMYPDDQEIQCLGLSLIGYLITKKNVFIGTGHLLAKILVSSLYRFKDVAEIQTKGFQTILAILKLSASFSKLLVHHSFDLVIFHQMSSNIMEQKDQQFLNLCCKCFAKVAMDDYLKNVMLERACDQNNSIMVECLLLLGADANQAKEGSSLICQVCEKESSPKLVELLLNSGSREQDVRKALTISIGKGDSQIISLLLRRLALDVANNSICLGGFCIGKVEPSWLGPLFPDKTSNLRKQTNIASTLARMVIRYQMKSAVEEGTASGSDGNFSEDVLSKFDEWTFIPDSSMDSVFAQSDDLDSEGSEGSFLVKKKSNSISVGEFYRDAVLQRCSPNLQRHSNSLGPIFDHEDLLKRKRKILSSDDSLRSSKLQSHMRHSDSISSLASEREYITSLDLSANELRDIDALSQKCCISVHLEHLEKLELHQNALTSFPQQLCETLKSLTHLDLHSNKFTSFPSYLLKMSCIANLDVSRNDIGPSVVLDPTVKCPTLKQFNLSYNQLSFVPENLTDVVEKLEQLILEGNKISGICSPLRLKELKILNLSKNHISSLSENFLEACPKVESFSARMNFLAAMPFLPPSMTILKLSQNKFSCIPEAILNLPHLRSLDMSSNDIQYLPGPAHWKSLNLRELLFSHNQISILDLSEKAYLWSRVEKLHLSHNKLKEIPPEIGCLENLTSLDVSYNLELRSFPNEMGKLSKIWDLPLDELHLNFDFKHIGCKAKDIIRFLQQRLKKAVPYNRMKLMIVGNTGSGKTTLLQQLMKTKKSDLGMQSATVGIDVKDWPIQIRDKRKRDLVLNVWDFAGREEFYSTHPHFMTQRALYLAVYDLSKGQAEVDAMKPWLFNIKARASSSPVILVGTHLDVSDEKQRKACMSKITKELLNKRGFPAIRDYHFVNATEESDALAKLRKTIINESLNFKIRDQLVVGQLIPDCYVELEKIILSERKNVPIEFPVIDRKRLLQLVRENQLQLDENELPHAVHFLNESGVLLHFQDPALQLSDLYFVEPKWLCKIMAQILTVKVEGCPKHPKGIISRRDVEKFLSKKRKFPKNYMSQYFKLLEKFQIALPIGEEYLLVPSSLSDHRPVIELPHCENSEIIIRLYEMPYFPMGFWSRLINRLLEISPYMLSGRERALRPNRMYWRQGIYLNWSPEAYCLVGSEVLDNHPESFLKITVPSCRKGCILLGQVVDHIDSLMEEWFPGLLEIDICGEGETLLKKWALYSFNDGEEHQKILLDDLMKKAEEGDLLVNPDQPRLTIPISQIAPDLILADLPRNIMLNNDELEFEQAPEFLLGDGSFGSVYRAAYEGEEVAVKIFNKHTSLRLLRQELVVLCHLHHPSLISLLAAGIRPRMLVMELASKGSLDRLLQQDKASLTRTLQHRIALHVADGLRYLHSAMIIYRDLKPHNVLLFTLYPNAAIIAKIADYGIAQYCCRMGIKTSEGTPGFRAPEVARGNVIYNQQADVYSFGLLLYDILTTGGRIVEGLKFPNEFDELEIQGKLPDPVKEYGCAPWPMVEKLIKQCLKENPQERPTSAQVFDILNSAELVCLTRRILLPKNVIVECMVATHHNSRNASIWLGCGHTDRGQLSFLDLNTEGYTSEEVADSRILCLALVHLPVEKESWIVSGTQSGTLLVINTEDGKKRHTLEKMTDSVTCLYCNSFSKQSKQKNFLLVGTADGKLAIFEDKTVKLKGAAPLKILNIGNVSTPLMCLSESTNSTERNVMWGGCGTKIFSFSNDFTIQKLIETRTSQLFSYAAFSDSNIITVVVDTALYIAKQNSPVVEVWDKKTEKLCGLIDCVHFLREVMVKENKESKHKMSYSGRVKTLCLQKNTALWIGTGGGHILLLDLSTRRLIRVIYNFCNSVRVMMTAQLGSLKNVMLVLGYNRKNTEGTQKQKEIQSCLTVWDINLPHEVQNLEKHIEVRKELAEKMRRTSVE
Procedure: FIG. 2. […] A.) 5 mg of Swiss 3T3 lysate was subjected to immunoprecipitation with control IgG or anti-LRRK2 (S348C) antibody. Immunoprecipitates were resolved on 4-12% Novex SDS-polyacrylamide gel and immunoblotted with antibodies against LRRK2 (S374C), Hsp90 and pan 14-3-3. B.) 5 mg of Swiss 3T3 lysate was subjected to immunoprecipitation with anti-pan 14-3-3 antibodies and immunoprecipitates were resolved on 4-12% Novex SDS-polyacrylamide gels and immunoblotted with antibodies against pan-14-3-3 and LRRK2 (S374C). […] 36 hours post transfection cells were lysed and glutathione-Sepharose affinity purified proteins immunoblotted with anti-GST or anti-FLAG antibodies. D.) Fragments encoding the indicated domains of LRRK2 were transiently expressed in HEK-293 cells and immunoprecipitated with anti-FLAG antibodies. The immunoprecipitates were resolved on 4-12% Novex SDS-polyacrylamide gels and probed with either anti-FLAG antibodies or 14-3-3 overlay with digoxigenin labeled 14-3-3 in a far western assay. […] E.) Endogenous LRRK2 was immunoprecipitated from Swiss 3T3 cells with anti-LRRK2 (S348C) and subsequently treated with λ-phosphatase in the absence or presence of EDTA prior to immunoblot analysis with indicated antibodies or a 14-3-3 overlay assay. F.) As in E, except experiment undertaken with immunoprecipitated FLAG-LRRK2 obtained following transient transfection in HEK-293 cells.
Immunological procedures. Cell lysates (10-30 μg) were resolved by electrophoresis on SDS polyacrylamide gels or Novex 4-12% gradient gels, and electroblotted to nitrocellulose membranes. Membranes were blocked with 5% skimmed milk (w/v) in 50 mM Tris/HCl, pH 7.5, 0.15 M NaCl and 0.1% (v/v) Tween (TBST Buffer). For phospho-antibodies, primary antibody was used at a concentration of 1 μg/ml, diluted in 5% skimmed milk in TBST with the inclusion of 10 μg/ml dephosphorylated-peptide.

Chain of full-length GFP-LRRK2[G2019S] mutant (human) (Q5S007 whole entry G2019S, canonical isoform): as the sequence (Q5S007 whole entry, canonical isoform) above, with G2019S counted along it
Chain of wild type full-length GFP-LRRK2 (human) (Q5S007 whole entry, canonical isoform): as the sequence (Q5S007 whole entry, canonical isoform) above

fold enrichment compared to GFP alone [1]: 10 to 30 fold
fold enrichment compared to GFP alone [2]: 10 to 30 fold
Molecule: endogenous 14-3-3 in 293 cells

binding result [3]: binds
B1: GST tagged human 14-3-3 zeta (other)
chain: MDKNELVQKAKLAEQAERYDDMAACMKSVTEQGAELSNEERNLLSVAYKNVVGARRSSWRVVSSIEQKTEGAEKKQQMAREYREKIETELRDICNDVLSLLEKFLIPNASQAESKVFYLKMKGDYYRYLAEVAAGDDKKGIVDQSQQAYQEAFEISKKEMQPTHPIRLGLALNFSVFYYEILNSPEKACSLAKTAFDEAIAELDTLSEESYKDSTLIMQLLRDNLTLWTSDTQGDEAEAGEGGEN
notes: As for GST tagged 14-3-3 beta; also called GST-14-3-3 zeta; not shown: GST tag from the pEBG plasmid

binding result [3]: no binding
B2: GST tagged human 14-3-3 sigma (other)
chain: MERASLIQKAKLAEQAERYEDMAAFMKGAVEKGEELSCEERNLLSVAYKNVVGGQRAAWRVLSSIEQKSNEEGSEEKGPEVREYREKVETELQGVCDTVLGLLDSHLIKEAGDAESRVFYLKMKGDYYRYLAEVATGDDKKRIIDSARSAYQEAMDISKKEMPPTNPIRLGLALNFSVFHYEIANSPEEAISLAKTTFDEAMADLHTLSEDSYKDSTLIMQLLRDNLTLWTADNAGEEGGEAPQEPQS
notes: As for GST tagged 14-3-3 beta; also called atypical sigma isoform; not shown: GST tag from the pEBG plasmid

binding result [3]: binds
B3: GST tagged human 14-3-3 eta (other)
chain: MGDREQLLQRARLAEQAERYDDMASAMKAVTELNEPLSNEDRNLLSVAYKNVVGARRSSWRVISSIEQKTMADGNEKKLEKVKAYREKIEKELETVCNDVLSLLDKFLIKNCNDFQYESKVFYLKMKGDYYRYLAEVASGEKKNSVVEASEAAYKEAFEISKEQMQPTHPIRLGLALNFSVFYYEIQNAPEQACLLAKQAFDDAIAELDTLNEDSYKDSTLIMQLLRDNLTLWTSDQQDEEAGEGN
notes: As for GST tagged 14-3-3 beta; also called GST-14-3-3 eta; not shown: GST tag from the pEBG plasmid

binding result [3]: binds
B4: GST tagged human 14-3-3 beta (other)
chain: MTMDKSELVQKAKLAEQAERYDDMAAAMKAVTEQGHELSNEERNLLSVAYKNVVGARRSSWRVISSIEQKTERNEKKQQMGKEYREKIEAELQDICNDVLELLDKYLIPNATQPESKVFYLKMKGDYFRYLSEVASGDNKQTTVSNSQQAYQEAFEISKKEMQPTHPIRLGLALNFSVFYYEILNSPEKACSLAKTAFDEAIAELDTLNEESYKDSTLIMQLLRDNLTLWTSENQGDEGDAGEGEN
notes: One of all seven isoforms of human 14-3-3 expressed from pEBG plasmids; also called GST-14-3-3 beta; not shown: GST tag from the pEBG plasmid

binding result [3]: binds
B5: GST tagged human 14-3-3 epsilon (other)
chain: MDDREDLVYQAKLAEQAERYDEMVESMKKVAGMDVELTVEERNLLSVAYKNVIGARRASWRIISSIEQKEENKGGEDKLKMIREYRQMVETELKLICCDILDVLDKHLIPAANTGESKVFYYKMKGDYHRYLAEFATGNDRKEAAENSLVAYKAASDIAMTELPPTHPIRLGLALNFSVFYYEILNSPDRACRLAKAAFDDAIAELDTLSEESYKDSTLIMQLLRDNLTLWTSDMQGDGEEQNKEALQDVEDENQ
notes: As for GST tagged 14-3-3 beta; also called GST-14-3-3 epsilon; not shown: GST tag from the pEBG plasmid

binding result [3]: binds
B6: GST tagged human 14-3-3 theta (other)
chain: MEKTELIQKAKLAEQAERYDDMATCMKAVTEQGAELSNEERNLLSVAYKNVVGGRRSAWRVISSIEQKTDTSDKKLQLIKDYREKVESELRSICTTVLELLDKYLIANATNPESKVFYLKMKGDYFRYLAEVACGDDRKQTIDNSQGAYQEAFDISKKEMQPTHPIRLGLALNFSVFYYEILNNPELACTLAKTAFDEAIAELDTLNEDSYKDSTLIMQLLRDNLTLWTSDSAGEECDAAEGAEN
notes: As for GST tagged 14-3-3 beta; also called GST-14-3-3 theta; not shown: GST tag from the pEBG plasmid

binding result [3]: binds
B7: GST tagged human 14-3-3 gamma (other)
chain: MVDREQLVQKARLAEQAERYDDMAAAMKNVTELNEPLSNEERNLLSVAYKNVVGARRSSWRVISSIEQKTSADGNEKKIEMVRAYREKIEKELEAVCQDVLSLLDNYLIKNCSETQYESKVFYLKMKGDYYRYLAEVATGEKRATVVESSEKAYSEAHEISKEHMQPTHPIRLGLALNYSVFYYEIQNAPEQACHLAKTAFDDAIAELDTLNEDSYKDSTLIMQLLRDNLTLWTSDQQDDDGGEGNN
notes: As for GST tagged 14-3-3 beta; also called GST-14-3-3 gamma; not shown: GST tag from the pEBG plasmid
